Laboratory results as given in CN111909274A.
One block for each molecule: values may come before it.

Key:
[1] = target: GPC3ΔGPI-FLAG重组蛋白 (GPC3 without its GPI region, C-terminal FLAG tag) (Homo sapiens (Human)) (UniProt P51654); assay: ELISA on coated GPC3ΔGPI-FLAG, antibody pre-treated 2 h at 70℃, reference 4℃
[2] = target: GPC3ΔGPI-FLAG重组蛋白 (GPC3 without its GPI region, C-terminal FLAG tag) (Homo sapiens (Human)) (UniProt P51654); assay: ELISA on coated GPC3ΔGPI-FLAG, antibody pre-treated 2 h at 90℃, reference 4℃
[3] = target: GPC3ΔGPI-FLAG重组蛋白 (GPC3 without its GPI region, C-terminal FLAG tag) (Homo sapiens (Human)) (UniProt P51654); assay: ELISA on coated GPC3ΔGPI-FLAG, nanobody pre-treated 2 h at 90℃, reference 4℃
[4] = target: GPC3ΔGPI-FLAG重组蛋白 (GPC3 without its GPI region, C-terminal FLAG tag) (Homo sapiens (Human)) (UniProt P51654); assay: ELISA on coated GPC3ΔGPI-FLAG, nanobody pre-treated 2 h at 70℃, reference 4℃
[5] = target: mCherry-GPC3 (mCherry fused to the N-terminus of GPC3, stably expressed on HEK293T cells) (UniProt P51654); assay: immunofluorescence colocalisation on HEK293T cells expressing mCherry-GPC3, confocal microscopy

抗原结合能力下降 (fall of OD450 against the 4℃ sample) [1]: 42.9%
抗原结合能力下降 (fall of OD450 against the 4℃ sample) [2]: 58.3%
Molecule: HN3-hFc融合抗体 (known GPC3 nanobody HN3 fused to human Fc, bought from Creative Biolabs) (Fc fusion)

抗原结合能力下降 (fall of OD450 against the 4℃ sample) [3]: 30.8%
抗原结合能力下降 (fall of OD450 against the 4℃ sample) [4]: 16.7%
皮尔森相关系数 (Pearson correlation of mCherry and Alexa Fluor 488 signals) [5]: 0.929
B1: G11纳米抗体 (GPC3 nanobody G11, His-tagged, from pET22b-G11-His) (VHH, not shown: small tags and cut ends)
VHH: QVQLVESGGALVQPGGSLRLSCAASSSDFSRNALRWYRQAPGKEREWVCGINWTGSGYAYEDSVKGRFTCSRDDARNTVYLQLNSLKPEDTAVYYCAPLACSNCFPYKHYVYWGQGTQVTVSS
